Drawing on paper PMC5376962, this text covers stoichiometry N for one substance.

The assay has as its target Burkholderia pseudomallei N-type ATPase c-subunit (atpE), assembled into the c17 rotor ring, expressed alone in E. coli (Burkholderia pseudomallei). The assay is described as follows: cryo-EM structure.

“Burkholderia pseudomallei N-type ATPase c-subunit (atpE), assembled into the c17 rotor ring, expressed alone in E. coli (natural protein)” displayed a stoichiometry N of 17.

The term stoichiometry N denotes a count of units in the complex or per binding partner.
